B1: Methanosarcina thermophila carbon monoxide dehydrogenase (MetCODH) α subunit (enzyme, UniProt A0A0E3ND19 1-803, looked up)
chain: MSKLTTGSFSIEDLESVQITINNIVGAAKEAAEKAEEELGPMGPTPFPTAATVRDWSFTLFDRYEPVYTPMCDQCCYCTFGPCNLEGNRRGACGLDMKGQAAREFFLRCITGCACHSAHGRHLLDHIISIFGEDMPINMGASNVIAPNIQLITGRQPKTLGDLKPIMEYVEEELGQLLATVHAGQEGAAIDYDNKAMLAGILDHVGMEVSDIAQVTALGFPKSDPEAPLVEVGMGTLDASKPVIIAIGHNVAGVTYIMDYMEDNNLTDKMEIGGLCCTAFDMTRYKREDRKPPYAKIVGTISKELKVVRSGIPDVIVIDEQCVRADLVEEGKKLKIPVIASNEKVMYGLPDRTNDDVDAIIEDIKTGKIPGCVMLDYEKLGELVPRLAMEMAPLREGISAIPSDEEMASLVAKCVACGECALACPEELDIPDAIQAAKEGDFTALDFLHDLCVGCRRCEQVCNKEIPILSVIDKAAQKAIAEEKGLVRAGRGQVSDAEIRAEGLNLVMGTTPGVIAIIGCANYPAGSKDVYRIAEEFLNRNYIVAVSGCSAMDIGMYKDADGKTLYERFPGRFERGNILNTGSCVSNSHISGTCHKVAAIFAGRNLSGNLAEIADYTLNRVGAVGLAWGAYSQKAAAIGTGCNMYGIPAVLGPHSGKYRRALIAKTYDENKWKVYDSRNGSELDIPPSPEFLITTAETWQEACVLLAKNCIRPSDNNMGRSIKLTHWIELSEKYLGVLPEDWWKFVRHEADLPLSRREELLKKLETEHGWEIDWKKKKIISGPKIKFDVSSQPTNLKRLCKEA
notes: α subunit of the CODH component of the acetyl-CoA decarbonylase/synthase (ACDS) complex, Methanosarcina thermophila strain TM-1; source: purified from M. thermophila strain TM-1 as part of the ACDS complex (Sepharose CL-6B); subcomplexes formed by dissociation on the cryo-EM grid

Data set [1] deals with the molecule itself. Nature of the data set: cryo-EM structure; purified native ACDS complex, 4 mg/mL in 25 mM MOPS, 25 mM Na2SO4, pH 7.2; chameleon-plunged, dispense-to-plunge time 150 ms; on-grid dissociation gave CODH tetramer (2.8 Å), CODH/ACS pentamer and hexamer (3.2 Å each).
In data set [2] the target is B1. The description is as above. The note with it: both partners purified.

Regarding B1, in data set [1], the binding result is reported as “binds”.

B2: Methanosarcina thermophila acetyl-CoA synthase (MetACS) β subunit (enzyme, UniProt A0A0E3NEI1 1-472, looked up)
chain: MSEFPFEISPMFEGERVRKEGMFVELGGPKSLGLELVRAKPMDEIEDGKVTIVGPDLKDMEEGKTYPWAMIFHVGGELVEPDLESVIERRVHDFINYCQGIMHLNQRYDVWMRISKDTAAKMDSFEPFGKAVMMLFKTELPFIEKMQVTFYTDQAEVEKQMAEAMEIFKARDARTKDLHDEDVDVFYGCTLCQSFAPTNVCVVSPDRVSLCGAINWFDGRAAAKVDPEGPQFAIEKGELLDAKTGEYSGVNEVAKKLSSGEFDKIKLHSFFDAPHTSCGCFEVVGFYIPEVDGIGWVNREYQGMAPNGLGFSTMAGQTGGGKQIVGFLGIGINYFYSPKFIQADGGWNRVVWLPSMLKEKIDEAIPDDMKDKIATEKDVTDIESLKTFLKEKNHPVVANWAAEAEEEEEEEEEEEEVAAEAAPMMMPAAGFQMPAMPAMPMMSGGAGGIKLTFKNAKITIDRMIISEKKEKK
notes: β (ACS) subunit of the ACDS complex, Methanosarcina thermophila strain TM-1; native protein; the model building counts residues 1 to 472, of which 398 to 472 (C-terminal extension) had no EM density; A2 domain residues 4 to 151, A3 domain residues 186 to 397; Carries the Ni-Fe-S A-cluster, with density modelled as CO on the proximal nickel; The deposited coordinates hold only about residues 1-397 …
Turning to B2, in data set [2], the binding result is “binds”.

The values above are taken from paper PMC11474084, “Capturing a methanogenic carbon monoxide dehydrogenase/acetyl-CoA synthase complex via cryogenic electron microscopy” (Proceedings of the National Academy of Sciences of the …, 2024).
